In US20230132049A1 (Genmab, published 2023):
Like-named read-outs stand apart in the source and are kept apart here.

Key:
human CD30 [1] = biological target: T1, human CD30 (human, UniProt P28908 19-595); assay: flow cytometry on DEL cells
T1 construct: Endogenous on HL, ALCL and NHL tumor cell lines, or full-length huCD30 (Uniprot P28908) transiently expressed in Expi293F or HEK293 cells; also called huCD30; TNFRSF8
T1 sequence: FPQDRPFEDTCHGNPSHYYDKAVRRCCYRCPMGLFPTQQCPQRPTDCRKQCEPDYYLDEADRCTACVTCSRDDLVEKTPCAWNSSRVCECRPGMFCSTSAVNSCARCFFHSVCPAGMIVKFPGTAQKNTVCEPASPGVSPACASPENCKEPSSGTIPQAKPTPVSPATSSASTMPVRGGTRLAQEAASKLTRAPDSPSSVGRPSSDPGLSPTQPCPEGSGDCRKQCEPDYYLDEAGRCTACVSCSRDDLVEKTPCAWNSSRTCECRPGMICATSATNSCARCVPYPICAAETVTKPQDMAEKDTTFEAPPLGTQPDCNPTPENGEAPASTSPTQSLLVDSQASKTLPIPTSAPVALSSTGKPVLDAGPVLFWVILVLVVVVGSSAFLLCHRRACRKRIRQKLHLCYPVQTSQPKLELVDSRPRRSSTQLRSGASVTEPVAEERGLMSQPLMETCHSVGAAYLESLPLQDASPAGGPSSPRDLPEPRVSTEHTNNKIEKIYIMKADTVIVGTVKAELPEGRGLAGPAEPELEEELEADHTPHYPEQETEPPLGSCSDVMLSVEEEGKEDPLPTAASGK

human CD30 [2] = biological target: T1, human CD30; assay: flow cytometry on NCEB-1 cells
Experimental: (§1) Cells (3×10⁴ cells/well) were incubated in polystyrene 96-well round-bottom plates (Greiner bio-one, cat. no. 650180) with serial dilutions of antibodies (range 0.0046 to 10 μg/mL in 3-fold dilution steps) in 50 μL staining buffer at 4° C. for 30 min. After washing twice in staining buffer, cells were incubated with 50 μL secondary antibody at 4° C. for 30 min. […] Next, cells were washed twice in staining buffer, resuspended in 100 μL staining buffer supplemented with TO-PRO-3 iodide (Thermo Fisher Scientific; cat. no. T3605; 1:8000 dilution) and analyzed on a FACSCelesta flow cytometer (BD Biosciences, USA). Live cells were gated based on FSC/SSC and absence of TOPRO-3 staining. Binding curves were analyzed by non-linear regression of log-transformed data (sigmoidal dose-response with variable slope, four parameters) using GraphPad Prism V7.02 software (GraphPad Software, San Diego, Calif., USA).

[3] = biological target: T2, rhesus monkey (Macaca mulatta) CD30 (rhesus monkey, UniProt P28908 19-595 (human entry)); assay: flow cytometry on Expi293F cells transfected with rhesus monkey CD30
T2 construct: Full-length construct expressed in Expi293F cells; also called mmCD30
T2 chain: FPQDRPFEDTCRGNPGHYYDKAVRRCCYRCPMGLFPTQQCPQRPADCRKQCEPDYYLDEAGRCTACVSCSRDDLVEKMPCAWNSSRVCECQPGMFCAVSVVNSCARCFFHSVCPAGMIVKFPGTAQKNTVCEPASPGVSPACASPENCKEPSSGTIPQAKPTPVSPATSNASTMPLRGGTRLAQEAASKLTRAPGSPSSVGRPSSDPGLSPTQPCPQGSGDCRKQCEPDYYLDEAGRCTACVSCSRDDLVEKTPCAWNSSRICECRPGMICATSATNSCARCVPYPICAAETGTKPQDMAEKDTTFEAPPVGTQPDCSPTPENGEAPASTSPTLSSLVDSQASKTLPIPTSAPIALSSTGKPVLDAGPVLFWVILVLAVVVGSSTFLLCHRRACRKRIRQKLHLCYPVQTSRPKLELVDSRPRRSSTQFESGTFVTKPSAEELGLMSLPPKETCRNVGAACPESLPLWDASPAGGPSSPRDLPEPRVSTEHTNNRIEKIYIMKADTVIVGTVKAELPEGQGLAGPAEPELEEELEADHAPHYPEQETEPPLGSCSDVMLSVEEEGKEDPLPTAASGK

human CD30 [4] = biological target: T1, human CD30; assay: cell-based or functional assay
[5] = biological target: T2, rhesus monkey (Macaca mulatta) CD30; assay: flow cytometry on Expi293F cells transfected with rhesus monkey CD30
human CD30 [6] = biological target: T1, human CD30; assay: flow cytometry on Expi293F cells transfected with human CD30
Experimental: Cells (3×10⁴ cells/well) were incubated in polystyrene 96-well round-bottom plates (Thermo Scientific, cat. no. 163320) with serial dilutions of antibodies (ranging from 0.0002 to 50 μg/mL in 4-fold dilution steps) in 50 μL staining buffer at 4° C. for 30 min. Experiments were performed in technical duplicate. After washing twice in staining buffer, cells were incubated in 50 μL secondary antibody at 4° C. for 30 min. […] Cells were washed twice in staining buffer, resuspended in 30 μL staining buffer containing 0.4% EDTA and the ToPro-3 viability marker (Invitrogen, cat. no. T3605) diluted 1:10,000. Cells were analyzed on an iQue Screener (Intellicyt Corporation, USA). Binding curves were analyzed using non-linear regression (sigmoidal dose-response with variable slope) using GraphPad Prism V9.0.0 software (GraphPad Software, San Diego, Calif., USA).

[7] = biological target: T2, rhesus monkey (Macaca mulatta) CD30; assay: flow cytometry on Expi293F cells transfected with rhesus monkey CD30
human CD30 [8] = biological target: T1, human CD30; assay: flow cytometry on SU-DHL-1 cells
Experimental: Binding of CD3×CD30 bispecific antibodies to two CD30-expressing human tumor cell lines SU-DHL-1 (ALCL; ATCC, cat. no. ACC 356) and HDLM-2 (HL; ATCC, cat. no. CRL-2965) was analyzed by flow cytometry.
as §1

[9] = biological target: T2, rhesus monkey (Macaca mulatta) CD30; assay: flow cytometry on Expi293F cells transfected with rhesus monkey CD30

B1: IgG1-CD30-MDX060-FERR (antibody)
heavy: QVQLQQWGAGLLKPSETLSLTCAVYGGSFSAYYWSWIRQPPGKGLEWIGDINHGGGTNYNPSLKSRVTISVDTSKNQFSLKLNSVTAADTAVYYCASLTAYWGQGSLVTVSSASTKGPSVFPLAPSSKSTSGGTAALGCLVKDYFPEPVTVSWNSGALTSGVHTFPAVLQSSGLYSLSSVVTVPSSSLGTQTYICNVNHKPSNTKVDKRVEPKSCDKTHTCPPCPAPEFERGPSVFLFPPKPKDTLMISRTPEVTCVVVDVSHEDPEVKFNWYVDGVEVHNAKTKPREEQYNSTYRVVSVLTVLHQDWLNGKEYKCKVSNKALPAPIEKTISKAKGQPREPQVYTLPPSREEMTKNQVSLTCLVKGFYPSDIAVEWESNGQPENNYKTTPPVLDSDGSFFLYSRLTVDKSRWQQGNVFSCSVMHEALHNHYTQKSLSLSPG
light: DIQMTQSPTSLSASVGDRVTITCRASQGISSWLTWYQQKPEKAPKSLIYAASSLQSGVPSRFSGSGSGTDFTLTISSLQPEDFATYYCQQYDSYPITFGQGTRLEIKRTVAAPSVFIFPPSDEQLKSGTASVVCLLNNFYPREAKVQWKVDNALQSGNSQESVTEQDSKDSTYSLSSTLTLSKADYEKHKVYACEVTHQGLSSPVTKSFNRGEC
notes: Monospecific, bivalent parental antibody; also called IgG1-huCD30-MDX060-FERR
Human CD30 [1]
  EC50 (read off the curve): ~0.09 µg/mL
Human CD30 [2]
  EC50 (read off the curve): ~0.05 µg/mL

B2: bsG1-huCD3-FEAL×CD30-T405-FEAR (bispecific antibody, human IgG1, kappa, lambda)
heavy 1: not shown
light 1: not shown
heavy 2: QVQLQQIGAELVRPGASVKLSCKASGYTFNNYWINWVKQRPGQGLEWIGNIYPSDSRSNYNQKFKDKATLTVDKPSSTAYMQLSSPTSEDSAVYYCTLGSYWGQGTLVTVSAASTKGPSVFPLAPSSKSTSGGTAALGCLVKDYFPEPVTVSWNSGALTSGVHTFPAVLQSSGLYSLSSVVTVPSSSLGTQTYICNVNHKPSNTKVDKRVEPKSCDKTHTCPPCPAPEFEGGPSVFLFPPKPKDTLMISRTPEVTCVVVAVSHEDPEVKFNWYVDGVEVHNAKTKPREEQYNSTYRVVSVLTVLHQDWLNGKEYKCKVSNKALPAPIEKTISKAKGQPREPQVYTLPPSREEMTKNQVSLTCLVKGFYPSDIAVEWESNGQPENNYKTTPPVLDSDGSFFLYSRLTVDKSRWQQGNVFSCSVMHEALHNHYTQKSLSLSPG
light 2: DVVMTQTPLTLSVTIGQPASISCKSSQSLSDSDGKTYLNWLLQRPGQSPKRLIYLVSKLDSGVPDRFTGSGSGTDFTLKISRVEAEDLGVYYCWQGAHFPRTFGGGTKLEIKRTVAAPSVFIFPPSDEQLKSGTASVVCLLNNFYPREAKVQWKVDNALQSGNSQESVTEQDSKDSTYSLSSTLTLSKADYEKHKVYACEVTHQGLSSPVTKSFNRGEC
notes: Bispecific IgG1 by Fab-arm exchange of the two parental antibodies; also called bsIgG1-huCD3-FEAL×CD30-T405-FEAR
[3]
  binding result: binds
Human CD30 [4]
  cytotoxicity IC50 (µg/mL) average, Karpas-299 cells: 0.078 µg/mL
  cytotoxicity maximum lysis (%) average, Karpas-299 cells: 41.7%

B3: IgG1-CD30-HeFi-I-FEAR (antibody, V domains shown)
VH: EVKLVESGGGLVQPGGSLRLSCATSGFTFSDYYMNWVRQPPGKALEWLGFIRNKANGYTTEFSASVMGRFTISRDDSQSILYLQMNTLRAEDSATYYCARDPPYGNPHYYAMDYWGQGTSVTVSS
VL: DIVLTQSPASLAVSLGQRATISCRASKSVSASGYNYMHWYQQKAGQPPKLLIHLASNLESGVPARFSGSGSGTDFTLNIHPVEEEDASTYYCQHSGELPFTFGSGTKLEIKR
notes: Monospecific, bivalent parental antibody
[5]
  binding result: no binding (tested: 10 µg/mL)

B4: IgG1-CD30-HRS-3-FEAR (antibody, V domains shown)
VH: QVQLQQSGAELARPGASVKMSCKASGYTFTTYTIHWVRQRPGHDLEWIGYINPSSGYSDYNQNFKGKTTLTADKSSNTAYMQLNSLTSEDSAVYYCARRADYGNYEYTWFAYWGQGTTVTVSS
VL: DIVMTQSPKFMSTSVGDRVTVTCKASQNVGTNVAWFQQKPGQSPKVLIYSASYRYSGVPDRFTGSGSGTDFTLTISNVQSEDLAEYFCQQYHTYPLTFGGGTKLEINR
notes: as for B3
Human CD30 [6]
  EC50 (read off the curve): ~0.06 µg/mL
[7]
  EC50 (read off the curve): ~0.1 µg/mL

B5: IgG1-CD30-T408-FEAR (antibody, V domains shown)
VH: QVQLQQPGAELVRPGASVKLSCKASGYTFTSYWINWVKQRPGQGLEWIGNIYPSDSYSNYNQKFKDKATLTVDKSSSTAYMQLSSPTSEDSAVYYCTLGSYWGQGTLVTVSA
VL: not shown
notes: as for B3
Human CD30 [8]
  EC50 (read off the curve): ~0.7 µg/mL

B6: IgG1-CD30-hAC10-FEAR (antibody, V domains shown)
VH: QVQLVQSGAEVKKPGASVKVSCKASGYTFTDYYITWVRQAPGQGLEWMGWIYPGSGNTKYNEKFKGRVTMTRDTSISTAYMELSRLRSDDTAVYYCANYGNYWFAYWGQGTLVTVSS
VL: DIVMTQSPDSLAVSLGERATINCKASQSVDFDGDSYMNWYQQKPGQPPKLLIYAASNLESGVPDRFSGSGSGTDFTLTISSLQAEDVAVYYCQQSNEDPWTFGQGTKVEIKR
notes: as for B3
[9]
  binding result: binds
Human CD30 [8]
  EC50 (read off the curve): ~0.05 µg/mL

B7: bsG1-huCD3-FEAL×CD30-HeFi-I-FEAR (bispecific antibody, human IgG1, kappa, lambda)
heavy 1: not shown
light 1: not shown
heavy 2: EVKLVESGGGLVQPGGSLRLSCATSGFTFSDYYMNWVRQPPGKALEWLGFIRNKANGYTTEFSASVMGRFTISRDDSQSILYLQMNTLRAEDSATYYCARDPPYGNPHYYAMDYWGQGTSVTVSSASTKGPSVFPLAPSSKSTSGGTAALGCLVKDYFPEPVTVSWNSGALTSGVHTFPAVLQSSGLYSLSSVVTVPSSSLGTQTYICNVNHKPSNTKVDKRVEPKSCDKTHTCPPCPAPEFEGGPSVFLFPPKPKDTLMISRTPEVTCVVVAVSHEDPEVKFNWYVDGVEVHNAKTKPREEQYNSTYRVVSVLTVLHQDWLNGKEYKCKVSNKALPAPIEKTISKAKGQPREPQVYTLPPSREEMTKNQVSLTCLVKGFYPSDIAVEWESNGQPENNYKTTPPVLDSDGSFFLYSRLTVDKSRWQQGNVFSCSVMHEALHNHYTQKSLSLSPG
light 2: not shown
notes: Bispecific IgG1 by Fab-arm exchange of the two parental antibodies; also called BsIgG1-huCD3-FEAL×CD30-HeFi-I-FEAR
Human CD30 [4]
  cytotoxicity IC50 (µg/mL) average, Karpas-299 cells: 0.052 µg/mL
  cytotoxicity maximum lysis (%) average, Karpas-299 cells: 43%
[5]
  binding result: no binding (tested: 10 µg/mL)
